Source: publication PMC4550792

What was measured:
Gαs-Rluc8 = Gαs-Rluc8 (UniProt P63092); test: FRET or BRET; BRET in live HEK 293 cells transiently co-expressing Gαs-Rluc8 with Venus-Gγ2 or Venus-Gβ1 in the presence of hFSHR or hLHR; read every 0.5 s before and after injection of 10 nM hFSH or hCG; 96-well format
hLHR-Rluc8 (human) = hLHR-Rluc8 (human) (UniProt P22888)
[1] = biological target: human luteinizing hormone receptor (wildtype) (human) (UniProt P22888)

Venus-Gγ2, sequence (P59768 whole entry): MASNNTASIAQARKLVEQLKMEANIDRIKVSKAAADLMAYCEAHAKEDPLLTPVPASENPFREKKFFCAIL
UniProt P63092, sequence (P63092 whole entry): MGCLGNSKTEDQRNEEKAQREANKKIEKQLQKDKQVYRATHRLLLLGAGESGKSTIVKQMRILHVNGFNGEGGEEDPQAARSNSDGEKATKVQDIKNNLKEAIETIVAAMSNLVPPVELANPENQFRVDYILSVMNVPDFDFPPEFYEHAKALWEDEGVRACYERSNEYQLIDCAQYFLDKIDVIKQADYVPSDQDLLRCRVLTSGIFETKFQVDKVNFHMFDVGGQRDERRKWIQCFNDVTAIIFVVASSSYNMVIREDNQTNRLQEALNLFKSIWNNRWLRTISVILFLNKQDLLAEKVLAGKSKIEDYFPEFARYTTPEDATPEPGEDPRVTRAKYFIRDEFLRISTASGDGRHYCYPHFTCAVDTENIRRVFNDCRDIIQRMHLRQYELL

Venus-Gγ2 (from UniProt P59768 1-71) (natural protein)
t1/2 of the hFSH-induced BRET decrease (with hFSHR) (Gαs-Rluc8): 16.8 s

human chorionic gonadotropin (from UniProt P01215 25-116; P0DN86 21-165) (ligand)
receptor internalization, decrease of BRET between hLHR-Rluc8 and the plasma membrane marker Venus-KRas in HEK 293 cells; EC50 of hCG (hLHR-Rluc8 (human)): 4.9 nM | cAMP accumulation, HTRF assay in HEK 293 cells expressing hLHR; EC50 of hCG [1]: 1.9 pM | cAMP production, BRET sensor CAMYEL in HEK 293 cells expressing hLHR; EC50 of hCG [1]: 3.5 pM

β-arrestin 2-TEV fusion protein (from UniProt P32121 1-409) (natural protein)
TANGO assay (tTA-dependent firefly luciferase reporter in HTLA cells, 14–20 h with increasing hFSH); EC50 of hFSH (FSHR/AVPR2-CT chimera): 5.7 nM
